According to patent US20080233103:

System: N-formyl-Met-Ala

recombinant histidine-tagged Mycobacterium tuberculosis peptide deformylase (mPDF), wild-type construct from pET-mPDF
Michalis-Menton constant (Km): 4.1 ± 0.2 mM
catalytic efficiency: 1220 ± 6 M⁻¹ s⁻¹
velocity maxima (Vmax): 13.3±0.7 µmoles/min/mg protein
